± gives the standard error. This sample holds only a part of the variants without activity.
B1: glmS ribozyme (parent)
chain: AUAAAAGCGCCAGAACUACAGAAAUGUAGUUGACGAGGAGGAGGUUUAUCGAAUUUUCGGCGGAUGCCUCCAAA

How the values were obtained:
Conditions in all cases: with glucosamine-6-phosphate
glucosamine-6-phosphate [1] = variants of: B1; assay: self-cleavage kobs at 640 uM GlcN6P; higher = faster cleavage; RNA array
Procedure, shortened: (§1)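 Tracking of barcoded ribozyme variants used a hybridised Cy3 probe at 37 °C, after in situ transcription by E. coli RNA polymerase on sequenced MiSeq chips. The flowed solution held 40 μM to 10 mM glucosamine-6-phosphate in HEPES/KCl/Mg(OAc)2 buffer, and imaging ran over ~14 h. kobs was taken from exponential decay fits of normalised per-tile medians, and kcat and KM from weighted Michaelis–Menten fits.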

glucosamine-6-phosphate [2] = variants of: B1; assay: self-cleavage kobs at 2500 uM GlcN6P; higher = faster cleavage; RNA array
Procedure, shortened: as §1

glucosamine-6-phosphate [3] = variants of: B1; assay: self-cleavage kobs at 10000 uM GlcN6P; higher = faster cleavage; RNA array
Procedure, shortened: as §1

glucosamine-6-phosphate [4] = variants of: B1; assay: self-cleavage kobs at 160 uM GlcN6P; higher = faster cleavage; RNA array
Procedure, shortened: as §1

U30G U45C C71A
self-cleavage kobs at 640 uM GlcN6P (glucosamine-6-phosphate [1]): 3.43e-05 ± 1.1e-05 s⁻¹ | self-cleavage kobs at 2500 uM GlcN6P (glucosamine-6-phosphate [2]): 8.42e-05 ± 2e-05 s⁻¹

C8A U31A C34U G60C
self-cleavage kobs at 640 uM GlcN6P (glucosamine-6-phosphate [1]): < 1e-05 s⁻¹

U46G A53G C70A
self-cleavage kobs at 640 uM GlcN6P (glucosamine-6-phosphate [1]): 0.000507 ± 0.0001 s⁻¹

A6C G41A U54G G59A G62C
self-cleavage kobs at 640 uM GlcN6P (glucosamine-6-phosphate [1]): < 1e-05 s⁻¹ | self-cleavage kobs at 10000 uM GlcN6P (glucosamine-6-phosphate [3]): < 1e-05 s⁻¹

C16G A33U A52U C61U C71U
self-cleavage kobs at 640 uM GlcN6P (glucosamine-6-phosphate [1]): < 1e-05 s⁻¹

G7A U56C C68U
self-cleavage kobs at 640 uM GlcN6P (glucosamine-6-phosphate [1]): < 1e-05 s⁻¹ | self-cleavage kobs at 10000 uM GlcN6P (glucosamine-6-phosphate [3]): < 1e-05 s⁻¹

A14U C16G G35U A36U G38U U56C U57G G60U
self-cleavage kobs at 640 uM GlcN6P (glucosamine-6-phosphate [1]): < 1e-05 s⁻¹ | self-cleavage kobs at 2500 uM GlcN6P (glucosamine-6-phosphate [2]): < 1e-05 s⁻¹

G32A G44U A53C
self-cleavage kobs at 640 uM GlcN6P (glucosamine-6-phosphate [1]): < 1e-05 s⁻¹ | self-cleavage kobs at 2500 uM GlcN6P (glucosamine-6-phosphate [2]): < 1e-05 s⁻¹

C10A A12U C67G
self-cleavage kobs at 640 uM GlcN6P (glucosamine-6-phosphate [1]): 8.71e-05 ± 3.5e-05 s⁻¹

G7U G13U A42G
self-cleavage kobs at 640 uM GlcN6P (glucosamine-6-phosphate [1]): < 1e-05 s⁻¹

C50G A53U
self-cleavage kobs at 160 uM GlcN6P (glucosamine-6-phosphate [4]): 0.00155 ± 0.00063 s⁻¹

A6G A64G C67G
self-cleavage kobs at 160 uM GlcN6P (glucosamine-6-phosphate [4]): < 1e-05 s⁻¹ | self-cleavage kobs at 640 uM GlcN6P (glucosamine-6-phosphate [1]): < 1e-05 s⁻¹ | self-cleavage kobs at 2500 uM GlcN6P (glucosamine-6-phosphate [2]): < 1e-05 s⁻¹

G51U A52G G59A
self-cleavage kobs at 640 uM GlcN6P (glucosamine-6-phosphate [1]): < 1e-05 s⁻¹ | self-cleavage kobs at 2500 uM GlcN6P (glucosamine-6-phosphate [2]): < 1e-05 s⁻¹

G38A G41U A42C U45C U54G C68G
self-cleavage kobs at 640 uM GlcN6P (glucosamine-6-phosphate [1]): < 1e-05 s⁻¹

C10A U46C U47A G59A
self-cleavage kobs at 640 uM GlcN6P (glucosamine-6-phosphate [1]): < 1e-05 s⁻¹ | self-cleavage kobs at 2500 uM GlcN6P (glucosamine-6-phosphate [2]): < 1e-05 s⁻¹

G37C C50U A53G U56C
self-cleavage kobs at 640 uM GlcN6P (glucosamine-6-phosphate [1]): < 1e-05 s⁻¹

U56G U57G G66U
self-cleavage kobs at 640 uM GlcN6P (glucosamine-6-phosphate [1]): < 1e-05 s⁻¹ | self-cleavage kobs at 2500 uM GlcN6P (glucosamine-6-phosphate [2]): < 1e-05 s⁻¹

A6U C10A A14U C70U
self-cleavage kobs at 640 uM GlcN6P (glucosamine-6-phosphate [1]): 0.000391 ± 8.2e-05 s⁻¹ | self-cleavage kobs at 2500 uM GlcN6P (glucosamine-6-phosphate [2]): 5.43e-05 ± 2.3e-05 s⁻¹

A6U G44U G51U U54A
self-cleavage kobs at 640 uM GlcN6P (glucosamine-6-phosphate [1]): < 1e-05 s⁻¹ | self-cleavage kobs at 2500 uM GlcN6P (glucosamine-6-phosphate [2]): < 1e-05 s⁻¹

A12U C58A G60U
self-cleavage kobs at 160 uM GlcN6P (glucosamine-6-phosphate [4]): < 1e-05 s⁻¹ | self-cleavage kobs at 640 uM GlcN6P (glucosamine-6-phosphate [1]): < 1e-05 s⁻¹

U46C C67U
self-cleavage kobs at 640 uM GlcN6P (glucosamine-6-phosphate [1]): 0.000202 ± 5.2e-05 s⁻¹ | self-cleavage kobs at 2500 uM GlcN6P (glucosamine-6-phosphate [2]): 0.000469 ± 0.00013 s⁻¹ | self-cleavage kobs at 10000 uM GlcN6P (glucosamine-6-phosphate [3]): 0.000426 ± 8.9e-05 s⁻¹

A6C C8G A48G G60U C68U
self-cleavage kobs at 640 uM GlcN6P (glucosamine-6-phosphate [1]): < 1e-05 s⁻¹ | self-cleavage kobs at 2500 uM GlcN6P (glucosamine-6-phosphate [2]): < 1e-05 s⁻¹

G9C G32U A39U G41U
self-cleavage kobs at 160 uM GlcN6P (glucosamine-6-phosphate [4]): < 1e-05 s⁻¹ | self-cleavage kobs at 640 uM GlcN6P (glucosamine-6-phosphate [1]): < 1e-05 s⁻¹ | self-cleavage kobs at 2500 uM GlcN6P (glucosamine-6-phosphate [2]): < 1e-05 s⁻¹

A6G G41A G43C C50G C61U
self-cleavage kobs at 640 uM GlcN6P (glucosamine-6-phosphate [1]): < 1e-05 s⁻¹ | self-cleavage kobs at 2500 uM GlcN6P (glucosamine-6-phosphate [2]): < 1e-05 s⁻¹

A15G G35C A42U C50G C68A C71U
self-cleavage kobs at 640 uM GlcN6P (glucosamine-6-phosphate [1]): < 1e-05 s⁻¹ | self-cleavage kobs at 2500 uM GlcN6P (glucosamine-6-phosphate [2]): < 1e-05 s⁻¹

A14U G40A U56G U57C
self-cleavage kobs at 640 uM GlcN6P (glucosamine-6-phosphate [1]): < 1e-05 s⁻¹ | self-cleavage kobs at 2500 uM GlcN6P (glucosamine-6-phosphate [2]): < 1e-05 s⁻¹

G32C G35A A36U U47G U56G
self-cleavage kobs at 640 uM GlcN6P (glucosamine-6-phosphate [1]): < 1e-05 s⁻¹ | self-cleavage kobs at 2500 uM GlcN6P (glucosamine-6-phosphate [2]): < 1e-05 s⁻¹

G13U U31A U45G A48C
self-cleavage kobs at 640 uM GlcN6P (glucosamine-6-phosphate [1]): < 1e-05 s⁻¹ | self-cleavage kobs at 2500 uM GlcN6P (glucosamine-6-phosphate [2]): < 1e-05 s⁻¹

G29U U55G G59U C70G
self-cleavage kobs at 640 uM GlcN6P (glucosamine-6-phosphate [1]): 0.00019 ± 4.5e-05 s⁻¹

G9C C50U U55G
self-cleavage kobs at 640 uM GlcN6P (glucosamine-6-phosphate [1]): < 1e-05 s⁻¹ | self-cleavage kobs at 2500 uM GlcN6P (glucosamine-6-phosphate [2]): < 1e-05 s⁻¹

A12C U46C C67G
self-cleavage kobs at 640 uM GlcN6P (glucosamine-6-phosphate [1]): 6.73e-05 ± 1.7e-05 s⁻¹ | self-cleavage kobs at 2500 uM GlcN6P (glucosamine-6-phosphate [2]): 0.000179 ± 5.3e-05 s⁻¹

U31A A42U U57A A64G C71A
self-cleavage kobs at 640 uM GlcN6P (glucosamine-6-phosphate [1]): < 1e-05 s⁻¹

G29A U56A A64G
self-cleavage kobs at 640 uM GlcN6P (glucosamine-6-phosphate [1]): 0.000408 ± 0.00012 s⁻¹ | self-cleavage kobs at 2500 uM GlcN6P (glucosamine-6-phosphate [2]): 0.00201 ± 0.00043 s⁻¹ | self-cleavage kobs at 10000 uM GlcN6P (glucosamine-6-phosphate [3]): 0.00195 ± 0.00041 s⁻¹

G38A A42U G60U C71G
self-cleavage kobs at 640 uM GlcN6P (glucosamine-6-phosphate [1]): < 1e-05 s⁻¹

C50U C61A A64U C67G
self-cleavage kobs at 640 uM GlcN6P (glucosamine-6-phosphate [1]): 8.84e-05 ± 4.2e-05 s⁻¹ | self-cleavage kobs at 2500 uM GlcN6P (glucosamine-6-phosphate [2]): 9.68e-05 ± 4.1e-05 s⁻¹

G29A U69A
self-cleavage kobs at 640 uM GlcN6P (glucosamine-6-phosphate [1]): 7.98e-05 ± 2.2e-05 s⁻¹ | self-cleavage kobs at 2500 uM GlcN6P (glucosamine-6-phosphate [2]): 3.9e-05 ± 9.8e-06 s⁻¹

G13U G66C U69G
self-cleavage kobs at 640 uM GlcN6P (glucosamine-6-phosphate [1]): 7.62e-05 ± 2.3e-05 s⁻¹

A14G G35U
self-cleavage kobs at 640 uM GlcN6P (glucosamine-6-phosphate [1]): < 1e-05 s⁻¹ | self-cleavage kobs at 2500 uM GlcN6P (glucosamine-6-phosphate [2]): < 1e-05 s⁻¹

G35U G40A A52U
self-cleavage kobs at 640 uM GlcN6P (glucosamine-6-phosphate [1]): < 1e-05 s⁻¹ | self-cleavage kobs at 2500 uM GlcN6P (glucosamine-6-phosphate [2]): < 1e-05 s⁻¹

A14U A15U C68U
self-cleavage kobs at 640 uM GlcN6P (glucosamine-6-phosphate [1]): 8.97e-05 ± 2.4e-05 s⁻¹ | self-cleavage kobs at 2500 uM GlcN6P (glucosamine-6-phosphate [2]): 0.000111 ± 3.2e-05 s⁻¹

G32C A33G U47A U54C A64C C71U
self-cleavage kobs at 640 uM GlcN6P (glucosamine-6-phosphate [1]): < 1e-05 s⁻¹ | self-cleavage kobs at 2500 uM GlcN6P (glucosamine-6-phosphate [2]): < 1e-05 s⁻¹

C8U G13A G66U
self-cleavage kobs at 640 uM GlcN6P (glucosamine-6-phosphate [1]): < 1e-05 s⁻¹ | self-cleavage kobs at 2500 uM GlcN6P (glucosamine-6-phosphate [2]): < 1e-05 s⁻¹

G41A U47A A52C
self-cleavage kobs at 640 uM GlcN6P (glucosamine-6-phosphate [1]): < 1e-05 s⁻¹

C10U U30A A33U
self-cleavage kobs at 640 uM GlcN6P (glucosamine-6-phosphate [1]): < 1e-05 s⁻¹

U45G U55C C68U
self-cleavage kobs at 640 uM GlcN6P (glucosamine-6-phosphate [1]): < 1e-05 s⁻¹

C16U C34A G37A C68G
self-cleavage kobs at 640 uM GlcN6P (glucosamine-6-phosphate [1]): 0.000275 ± 0.00012 s⁻¹

G7U A14U A52C C68A
self-cleavage kobs at 640 uM GlcN6P (glucosamine-6-phosphate [1]): 0.00249 ± 0.001 s⁻¹

G9C C16G
self-cleavage kobs at 640 uM GlcN6P (glucosamine-6-phosphate [1]): < 1e-05 s⁻¹ | self-cleavage kobs at 2500 uM GlcN6P (glucosamine-6-phosphate [2]): < 1e-05 s⁻¹

A6G G51A G59U G60A
self-cleavage kobs at 640 uM GlcN6P (glucosamine-6-phosphate [1]): < 1e-05 s⁻¹ | self-cleavage kobs at 2500 uM GlcN6P (glucosamine-6-phosphate [2]): < 1e-05 s⁻¹

C10G A15C A36U
self-cleavage kobs at 640 uM GlcN6P (glucosamine-6-phosphate [1]): < 1e-05 s⁻¹

C11U G38C C50U A52C
self-cleavage kobs at 640 uM GlcN6P (glucosamine-6-phosphate [1]): < 1e-05 s⁻¹

U46C G59C
self-cleavage kobs at 640 uM GlcN6P (glucosamine-6-phosphate [1]): < 1e-05 s⁻¹

C8G G35A G44C
self-cleavage kobs at 640 uM GlcN6P (glucosamine-6-phosphate [1]): < 1e-05 s⁻¹ | self-cleavage kobs at 10000 uM GlcN6P (glucosamine-6-phosphate [3]): < 1e-05 s⁻¹

A12G C16U U49A
self-cleavage kobs at 640 uM GlcN6P (glucosamine-6-phosphate [1]): < 1e-05 s⁻¹

G44C C68A U69G
self-cleavage kobs at 640 uM GlcN6P (glucosamine-6-phosphate [1]): < 1e-05 s⁻¹

A14U G44U U54A G59C C68U
self-cleavage kobs at 640 uM GlcN6P (glucosamine-6-phosphate [1]): < 1e-05 s⁻¹ | self-cleavage kobs at 2500 uM GlcN6P (glucosamine-6-phosphate [2]): < 1e-05 s⁻¹

U47A C61A C67G C71A
self-cleavage kobs at 640 uM GlcN6P (glucosamine-6-phosphate [1]): < 1e-05 s⁻¹ | self-cleavage kobs at 2500 uM GlcN6P (glucosamine-6-phosphate [2]): < 1e-05 s⁻¹

U31A A33G U49C C58G
self-cleavage kobs at 640 uM GlcN6P (glucosamine-6-phosphate [1]): < 1e-05 s⁻¹

C34G U69G
self-cleavage kobs at 640 uM GlcN6P (glucosamine-6-phosphate [1]): 0.000107 ± 2e-05 s⁻¹ | self-cleavage kobs at 2500 uM GlcN6P (glucosamine-6-phosphate [2]): 8.27e-05 ± 2.5e-05 s⁻¹

U30A A48C C58A G60A
self-cleavage kobs at 640 uM GlcN6P (glucosamine-6-phosphate [1]): < 1e-05 s⁻¹

G9C C11G
self-cleavage kobs at 640 uM GlcN6P (glucosamine-6-phosphate [1]): < 1e-05 s⁻¹ | self-cleavage kobs at 2500 uM GlcN6P (glucosamine-6-phosphate [2]): < 1e-05 s⁻¹ | self-cleavage kobs at 10000 uM GlcN6P (glucosamine-6-phosphate [3]): < 1e-05 s⁻¹

G9U G29U G44A
self-cleavage kobs at 640 uM GlcN6P (glucosamine-6-phosphate [1]): < 1e-05 s⁻¹ | self-cleavage kobs at 2500 uM GlcN6P (glucosamine-6-phosphate [2]): < 1e-05 s⁻¹

Source: the supplement of paper PMC7125110
